According to the supplement of paper PMC5998384:

Tests used:
[1] = tested on: HeLa Kyoto; assay: solubility change mitosis vs G1/S (difference of NP-40 vs SDS log2 ratios) (log2 ratio difference); higher = more soluble in mitosis
[2] = tested on: HeLa Kyoto; assay: thermal stability score vs G1/S (z-score of summed log2 fold changes over temperatures); higher = more thermally stable than in G1/S
[3] = tested on: HeLa Kyoto; assay: solubility in G1/S (NP-40 vs SDS abundance) (log2 ratio); higher = more soluble; settings: cell cycle stage: G1/S
[4] = tested on: HeLa Kyoto; assay: melting temperature (median over replicates), in situ; higher = more thermally stable
[5] = cell cycle stage: early G1 (4.5 h after nocodazole release)
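Throughout, for melting temperature (median over replicates), in situ: HeLa Kyoto cells synchronized by double thymidine or nocodazole block, proteins quantified by TMT10plex mass spectrometry, three independent biological replicates.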
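Throughout, for solubility change mitosis vs G1/S (difference of NP-40 vs SDS log2 ratios): synchronized HeLa Kyoto cells (double thymidine block for G1/S, nocodazole release for mitosis), protein amounts in NP-40 versus SDS lysates quantified by mass spectrometry, three biological replicates.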
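Throughout, for solubility in G1/S (NP-40 vs SDS abundance): HeLa Kyoto cells arrested at G1/S by double thymidine block, proteins quantified by TMT10plex mass spectrometry in mild NP-40 versus SDS extracts, three biological replicates.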
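Throughout, for thermal stability score vs G1/S (z-score of summed log2 fold changes over temperatures): synchronized HeLa Kyoto cells, proteins quantified by TMT10plex mass spectrometry, three biological replicates, mitosis taken 0.5 h after nocodazole release, G1/S directly after double thymidine block.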

Which “solubility change mitosis (log2)” value [1] does the source give for “MAAAWGSSLTAATQRAVTPWPRGRLLTASLGPQARREASSSSPEAGEGQIRLTDSCVQRLLEITEGSEFLRLQVEGGGCSGFQYKFSLDTVINPDDRVFEQGGARVVVDSDSLAFVKGAQVDFSQELIRSSFQVLNNPQAQQGCSCGSSFSIKL [ISCA2]” here?
The value was -0.123.

And the thermal stability score [2, 5]?
Its thermal stability score is -1.26.

And the thermal stability score ([2]; cell cycle stage: mitosis)?
Its thermal stability score is -2.06.

What about the “solubility in G1/S (log2)” value [3] of the same sequence?
The value was 0.276.

What about the melting temperature ([4]; cell cycle stage: G1/S) of the same sequence?
The melting temperature was 51.6 °C.

What about the melting temperature ([4]; cell cycle stage: mitosis) of the same sequence?
The melting temperature was 53.4 °C.

With “MAAAYLDPNLNHTPNSSTKTHLGTGMERSPGAMERVLKVFHYFESNSEPTTWASIIRHGDATDVRGIIQKIVDSHKVKHVACYGFRLSHLRSEEVHWLHVDMGVSSVREKYELAHPPEEWKYELRIRYLPKGFLNQFTEDKPTLNFFYQQVKSDYMLEIADQVDQEIALKLGCLEIRRSYWEMRGNALEKKSNYEVLEKDVGLKRFFPKSLLDSVKAKTLRKLIQQTFRQFANLNREESILKFFEILSPVYRFDKECFKCALGSSWIISVELAIGPEEGISYLTDKGCNPTHLADFTQVQTIQYSNSEDKDRKGMLQLKIAGAPEPLTVTAPSLTIAENMADLIDGYCRLVNGTSQSFIIRPQKEGERALPSIPKLANSEKQGMRTHAVSVSETDDYAEIIDEEDTYTMPSTRDYEIQRERIELGRCIGEGQFGDVHQGIYMSPENPALAVAIKTCKNCTSDSVREKFLQEALTMRQFDHPHIVKLIGVITENPVWIIMELCTLGELRSFLQVRKYSLDLASLILYAYQLSTALAYLESKRFVHRDIAARNVLVSSNDCVKLGDFGLSRYMEDSTYYKASKGKLPIKWMAPESINFRRFTSASDVWMFGVCMWEILMHGVKPFQGVKNNDVIGRIENGERLPMPPNCPPTLYSLMTKCWAYDPSRRPRFTELKAQLSTILEEEKAQQEERMRMESRRQATVSWDSGGSDEAPPKPSRPGYPSPRSSEGFYPSPQHMVQTNHYQVSGYPGSHGITAMAGSIYPGQASLLDQTDSWNHRPQEIAMWQPNVEDSTVLDLRGIGQVLPTHLMEERLIRQQQEMEEDQRWLEKEERFLKPDVRLSRGSIDREDGSLQGPIGNQHIYQPVGKPDPAAPPKKPPRPGAPGHLGSLASLSSPADSYNEGVKLQPQEISPPPTANLDRSNDKVYENVTGLVKAVIEMSSKIQPAPPEEYVPMVKEVGLALRTLLATVDETIPLLPASTHREIEMAQKLLNSDLGELINKMKLAQQYVMTSLQQEYKKQMLTAAHALAVDAKNLLDVIDQARLKMLGQTRPH [PTK2]” as the sequence, how does the “solubility change mitosis (log2)” value [1] read?
The value was -0.0593.

What about the thermal stability score [2, 5] of the same sequence?
Its thermal stability score is 0.562.

What about the thermal stability score ([2]; cell cycle stage: mitosis) of the same sequence?
Its thermal stability score is 0.0674.

What about the “solubility in G1/S (log2)” value [3] of the same sequence?
Its value is -0.0233.

What about the melting temperature ([4]; cell cycle stage: G1/S) of the same sequence?
Its melting temperature is 53 °C.

What about the melting temperature ([4]; cell cycle stage: mitosis) of the same sequence?
The melting temperature was 53.2 °C.

“MAACEGRRSGALGSSQSDFLTPPVGGAPWAVATTVVMYPPPPPPPHRDFISVTLSFGENYDNSKSWRRRSCWRKWKQLSRLQRNMILFLLAFLLFCGLLFYINLADHWKALAFRLEEEQKMRPEIAGLKPANPPVLPAPQKADTDPENLPEISSQKTQRHIQRGPPHLQIRPPSQDLKDGTQEEATKRQEAPVDPRPEGDPQRTVISWRGAVIEPEQGTELPSRRAEVPTKPPLPPARTQGTPVHLNYRQKGVIDVFLHAWKGYRKFAWGHDELKPVSRSFSEWFGLGLTLIDALDTMWILGLRKEFEEARKWVSKKLHFEKDVDVNLFESTIRILGGLLSAYHLSGDSLFLRKAEDFGNRLMPAFRTPSKIPYSDVNIGTGVAHPPRWTSDSTVAEVTSIQLEFRELSRLTGDKKFQEAVEKVTQHIHGLSGKKDGLVPMFINTHSGLFTHLGVFTLGARADSYYEYLLKQWIQGGKQETQLLEDYVEAIEGVRTHLLRHSEPSKLTFVGELAHGRFSAKMDHLVCFLPGTLALGVYHGLPASHMELAQELMETCYQMNRQMETGLSPEIVHFNLYPQPGRRDVEVKPADRHNLLRPETVESLFYLYRVTGDRKYQDWGWEILQSFSRFTRVPSGGYSSINNVQDPQKPEPRDKMESFFLGETLKYLFLLFSDDPNLLSLDAYVFNTEAHPLPIWTPA [MAN1B1]” was tested. Which “solubility change mitosis (log2)” value [1] did it give?
The value was -0.189.

What about the thermal stability score [2, 5] of the same sequence?
Its thermal stability score is 0.594.

What about the thermal stability score ([2]; cell cycle stage: mitosis) of the same sequence?
The thermal stability score was 0.346.

What about the “solubility in G1/S (log2)” value [3] of the same sequence?
The value was 0.19.

And the melting temperature ([4]; cell cycle stage: G1/S)?
The melting temperature was 51.6 °C.

What about the melting temperature ([4]; cell cycle stage: mitosis) of the same sequence?
Its melting temperature is 52.1 °C.

Which results are given for “MAACRYCCSCLRLRPLSDGPFLLPRRDRALTQLQVRALWSSAGSRAVAVDLGNRKLEISSGKLARFADGSAVVQSGDTAVMVTAVSKTKPSPSQFMPLVVDYRQKAAAAGRIPTNYLRREIGTSDKEILTSRIIDRSIRPLFPAGYFYDTQVLCNLLAVDGVNEPDVLAINGASVALSLSDIPWNGPVGAVRIGIIDGEYVVNPTRKEMSSSTLNLVVAGAPKSQIVMLEASAENILQQDFCHAIKVGVKYTQQIIQGIQQLVKETGVTKRTPQKLFTPSPEIVKYTHKLAMERLYAVFTDYEHDKVSRDEAVNKIRLDTEEQLKEKFPEADPYEIIESFNVVAKEVFRSIVLNEYKRCDGRDLTSLRNVSCEVDMFKTLHGSALFQRGQTQVLCTVTFDSLESGIKSDQVITAINGIKDKNFMLHYEFPPYATNEIGKVTGLNRRELGHGALAEKALYPVIPRDFPFTIRVTSEVLESNGSSSMASACGGSLALMDSGVPISSAVAGVAIGLVTKTDPEKGEIEDYRLLTDILGIEDYNGDMDFKIAGTNKGITALQADIKLPGIPIKIVMEAIQQASVAKKEILQIMNKTISKPRASRKENGPVVETVQVPLSKRAKFVGPGGYNLKKLQAETGVTISQVDEETFSVFAPTPSAMHEARDFITEICKDDQEQQLEFGAVYTATITEIRDTGVMVKLYPNMTAVLLHNTQLDQRKIKHPTALGLEVGQEIQVKYFGRDPADGRMRLSRKVLQSPATTVVRTLNDRSSIVMGEPISQSSSNSQ [PNPT1]”?
solubility change mitosis (log2) [1]: -0.154; thermal stability score [2, 5]: 0.177; thermal stability score ([2]; cell cycle stage: mitosis): 1.84; solubility in G1/S (log2) [3]: 0.0945; melting temperature ([4]; cell cycle stage: G1/S): 49.8 °C; melting temperature ([4]; cell cycle stage: mitosis): 50 °C

Which results are given for “MAAEQDPEARAAARPLLTDLYQATMALGYWRAGRARDAAEFELFFRRCPFGGAFALAAGLRDCVRFLRAFRLRDADVQFLASVLPPDTDPAFFEHLRALDCSEVTVRALPEGSLAFPGVPLLQVSGPLLVVQLLETPLLCLVSYASLVATNAARLRLIAGPEKRLLEMGLRRAQGPDGGLTASTYSYLGGFDSSSNVLAGQLRGVPVAGTLAHSFVTSFSGSEVPPDPMLAPAAGEGPGVDLAAKAQVWLEQVCAHLGLGVQEPHPGERAAFVAYALAFPRAFQGLLDTYSVWRSGLPNFLAVALALGELGYRAVGVRLDSGDLLQQAQEIRKVFRAAAAQFQVPWLESVLIVVSNNIDEEALARLAQEGSEVNVIGIGTSVVTCPQQPSLGGVYKLVAVGGQPRMKLTEDPEKQTLPGSKAAFRLLGSDGSPLMDMLQLAEEPVPQAGQELRVWPPGAQEPCTVRPAQVEPLLRLCLQQGQLCEPLPSLAESRALAQLSLSRLSPEHRRLRSPAQYQVVLSERLQALVNSLCAGQSP [NAPRT]”?
solubility change mitosis (log2) [1]: -0.0823; thermal stability score [2, 5]: 0.14; thermal stability score ([2]; cell cycle stage: mitosis): -1.8; solubility in G1/S (log2) [3]: 0.352; melting temperature ([4]; cell cycle stage: G1/S): 56.9 °C; melting temperature ([4]; cell cycle stage: mitosis): 56.7 °C
